Measured values reported in patent US20190381150.

Target: Human lactoferrin (lactoferrin from human milk, Sigma) (UniProt P02788)
Sequence (P02788 20-710): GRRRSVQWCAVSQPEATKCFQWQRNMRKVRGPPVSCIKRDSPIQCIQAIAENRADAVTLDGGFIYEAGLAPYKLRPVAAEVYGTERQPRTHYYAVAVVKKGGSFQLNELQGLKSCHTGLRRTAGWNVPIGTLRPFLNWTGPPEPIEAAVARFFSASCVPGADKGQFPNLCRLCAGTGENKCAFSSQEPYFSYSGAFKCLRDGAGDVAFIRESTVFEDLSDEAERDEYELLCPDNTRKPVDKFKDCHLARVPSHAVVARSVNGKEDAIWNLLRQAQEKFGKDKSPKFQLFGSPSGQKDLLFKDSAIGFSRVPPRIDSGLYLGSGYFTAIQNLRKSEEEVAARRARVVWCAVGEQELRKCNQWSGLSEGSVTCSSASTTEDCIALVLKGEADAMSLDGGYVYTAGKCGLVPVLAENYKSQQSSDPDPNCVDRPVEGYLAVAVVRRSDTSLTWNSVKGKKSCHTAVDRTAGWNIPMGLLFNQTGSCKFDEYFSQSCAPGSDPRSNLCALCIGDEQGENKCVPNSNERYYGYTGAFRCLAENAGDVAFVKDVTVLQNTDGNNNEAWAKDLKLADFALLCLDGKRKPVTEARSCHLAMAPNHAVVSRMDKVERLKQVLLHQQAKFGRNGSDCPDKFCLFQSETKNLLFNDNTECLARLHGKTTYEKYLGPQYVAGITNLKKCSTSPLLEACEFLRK

## EndoBI-1 D184N (Asp 184 of EndoBI-1 mutated to Asn184), recombinant, signal sequence and transmembrane domains deleted
  shift in molecular weight on SDS-PAGE of human milk after overnight incubation: No change was observed when the milk sample was incubated with EndoBI-1 D184N
